Source: patent US10683329B2, “Dual-site BACE1 inhibitors” (priority 2014, dated 2020)
*1 amine or outer side, *2 acyl side, *3 side chain or, on linkers, in order; H or OH if unused. Where no end group is shown, it is not given here. [ ]: non-standard residue; d: D form. MetSta(3S,4S) = CSCC[C@H](N[*:1])[C@@H](O)CC(=O)[*:2]; Sta = CC(C)C[C@H](N)[C@@H](O)CC(=O)O; PEG4 = NCCOCCOCCOCCOCCC(=O)O; PEG3 = NCCOCCOCCOCCC(=O)O; Aun = NCCCCCCCCCCC(=O)O; Ahx = NCCCCCC(=O)O

B1: Tyr-Pro-Tyr-Phe-Ile-Pro-Leu-Gly-Gly-Glu-Val-Asn-Sta-Val-Ala-Glu-DPro-Lys(Chol)-NH2 x TFA (peptide)
peptide: YPYFIPLGGEVN[Sta]VAE[dP]K(Chol)-NH2
modifications: also: x TFA salt
B2: Tyr-Pro-Tyr-Phe-Ile-Pro-Leu-NH(CH2)5CO-Glu-Val-Asn-Sta-Val-Ala-Glu-DPro-Lys(Chol)-NH2 x TFA (peptide)
peptide: YPYFIPL[Ahx]EVN[Sta]VAE[dP]K(Chol)-NH2
modifications: also: TFA salt
B3: Tyr-Pro-Tyr-Phe-Ile-Pro-Leu-Gly-Gly-Gly-Glu-Val-Asn-MetSta-Val-Ala-Glu-DPhe-Lys(C14)-NH2 x TFA (peptide)
peptide: YPYFIPLGGGEVN[MetSta(3S,4S)]VAE[dF]K(C14)-NH2
modifications: also: x TFA salt
B4: Tyr-Pro-Tyr-Phe-Ile-Pro-Leu-Gly-Gly-Gly-Glu-Val-Asn-Sta-Val-Ala-Glu-DPro-Lys(C14)-NH2 x TFA (peptide)
peptide: YPYFIPLGGGEVN[Sta]VAE[dP]K(C14)-NH2
modifications: also: x TFA salt
B5: Tyr-Pro-Tyr-Phe-Ile-Pro-Leu-Gly-Gly-Gly-Gly-Gly-Gly-Glu-Val-Asn-Sta-Val-Ala-Glu-DPro-Lys(Chol)-NH2 x TFA (peptide)
peptide: YPYFIPLGGGGGGEVN[Sta]VAE[dP]K(Chol)-NH2
modifications: also: TFA salt
B6: Tyr-Pro-Tyr-Phe-Ile-Pro-Leu-DLys-Gly-Gly-Glu-Val-Asn-Sta-Val-Ala-Glu-DPro-Lys(Chol)-NH2 x 2TFA (peptide)
peptide: YPYFIPL[dK]GGEVN[Sta]VAE[dP]K(Chol)-NH2
modifications: also: x 2TFA salt
B7: Tyr-Pro-Tyr-Phe-Ile-Pro-Leu-Lys-Gly-Gly-Glu-Val-Asn-Sta-Val-Ala-Glu-DPro-Lys(Chol)-NH2 x 2TFA (peptide)
peptide: YPYFIPLKGGEVN[Sta]VAE[dP]K(Chol)-NH2
modifications: also: 2TFA salt
B8: Tyr-Pro-Lys-Phe-Lys-Pro-Leu-Gly-DLys-Gly-Glu-Val-Asn-Sta-Val-Ala-Glu-DPro-Lys(Chol)-NH2 x 4TFA (peptide)
peptide: YPKFKPLG[dK]GEVN[Sta]VAE[dP]K(Chol)-NH2
modifications: also: x 4TFA salt
B9: Leu-Ile-Tyr-Phe-Pro-Tyr-Pro-Gly-Gly-Gly-Glu-Val-Asn-Sta-Val-Ala-Glu-DPro-Lys(Chol)-NH2 x TFA (peptide)
peptide: LIYFPYPGGGEVN[Sta]VAE[dP]K(Chol)-NH2
modifications: also: x TFA salt
B10: Tyr-Pro-Tyr-Phe-Lys-Pro-Leu-Gly-DLys-Gly-Glu-Val-Asn-Sta-Val-Ala-Glu-DPro-Lys(Chol)-NH2 x 3TFA (peptide)
peptide: YPYFKPLG[dK]GEVN[Sta]VAE[dP]K(Chol)-NH2
modifications: also: 3TFA salt
B11: Tyr-Pro-Tyr-Phe-Ile-Pro-Leu-Gly-Gly-Lys-Glu-Val-Asn-Sta-Val-Ala-Glu-DPro-Lys(Chol)-NH2 x 2TFA (peptide)
peptide: YPYFIPLGGKEVN[Sta]VAE[dP]K(Chol)-NH2
modifications: also: 2TFA salt
B12: Tyr-Pro-Tyr-Phe-Ile-Pro-Leu-Gly-Gly-Gly-Glu-Val-Asn-Sta-Asp-Ala-Glu-DPro-Lys(Chol)-NH2 x TFA (peptide)
peptide: YPYFIPLGGGEVN[Sta]DAE[dP]K(Chol)-NH2
modifications: also: x TFA salt
B13: Leu-Ile-Tyr-Phe-Pro-Tyr-Pro-Gly-Gly-Gly-Gly-Glu-Val-Asn-Sta-Val-Ala-Glu-DPro-Lys(Chol)-NH2 x TFA (peptide)
peptide: LIYFPYPGGGGEVN[Sta]VAE[dP]K(Chol)-NH2
modifications: also: x TFA salt
B14: Tyr-Pro-Lys-Phe-Ile-Pro-Leu-Gly-Gly-Gly-Glu-Val-Asn-Sta-Val-Ala-Glu-DPro-Lys(Chol)-NH2 x 2TFA (peptide)
peptide: YPKFIPLGGGEVN[Sta]VAE[dP]K(Chol)-NH2
modifications: also: x 2TFA salt
B15: Tyr-Pro-Tyr-Phe-Ile-Pro-Leu-PEG(3)-Glu-Val-Asn-Sta-Val-Ala-Glu-DPro-Lys(Chol)-NH2 x TFA (peptide)
peptide: YPYFIPL[PEG3]EVN[Sta]VAE[dP]K(Chol)-NH2
modifications: also: TFA salt
B16: Tyr-Pro-Tyr-Phe-Ile-Lys-Leu-PEG(4)-Glu-Val-Asn-Sta-Val-Ala-Glu-DPro-Lys(Chol)-NH2 x 2TFA (peptide)
peptide: YPYFIKL[PEG4]EVN[Sta]VAE[dP]K(Chol)-NH2
modifications: numbers in words are those of the source; also: x 2TFA salt
B17: Tyr-Pro-Tyr-Phe-Ile-Pro-Leu-NH(CH2)10CO-Glu-Val-Asn-Sta-Val-Ala-Glu-DPro-Lys(Chol)-NH2 x TFA (peptide)
peptide: YPYFIPL[Aun]EVN[Sta]VAE[dP]K(Chol)-NH2
modifications: also: TFA salt
B18: Tyr-Pro-Tyr-Phe-Ile-Pro-Leu-Gly-Gly-Gly-Gly-Gly-Glu-Val-Asn-MetSta-Val-Ala-Glu-DPhe-Lys(Chol)-NH2 x TFA (peptide)
peptide: YPYFIPLGGGGGEVNXVAEFK
modifications: MetSta at 16; DPhe at 20; Lys(Chol) at 21; C-terminal NH2
B19: Ac-Tyr-Pro-Tyr-Phe-Ile-Pro-Leu-Gly-Gly-Gly-Glu-Val-Asn-Sta-Val-Ala-Glu-DPro-Lys(Chol)-NH2 (peptide)
peptide: Ac-YPYFIPLGGGEVN[Sta]VAE[dP]K(Chol)-NH2
modifications: also: x TFA salt
B20: Tyr-Pro-Tyr-Phe-Ile-Pro-Leu-Gly-Lys-Gly-Glu-Val-Asn-Sta-Val-Ala-Glu-DPro-Lys(Chol)-NH2 x 2TFA (peptide)
peptide: YPYFIPLGKGEVN[Sta]VAE[dP]K(Chol)-NH2
modifications: also: 2TFA salt
B21: Tyr-Lys-Tyr-Phe-Ile-Pro-Leu-Gly-DLys-Gly-Glu-Val-Asn-Sta-Val-Ala-Glu-DPro-Lys(Chol'ester')-NH2 x 3TFA (peptide)
peptide: YKYFIPLG[dK]GEVN[Sta]VAE[dP]K(Chol'ester')-NH2
modifications: also: x 3TFA salt
B22: Tyr-Pro-Tyr-Phe-Ile-Pro-Leu-Gly-Gly-Gly-Glu-Val-Asn-Leu*Ala-Ala-Glu-DPro-Lys(Chol)-NH2 x TFA (peptide)
peptide: YPYFIPLGGGEVNLAAE[dP]K(Chol)-NH2
modifications: also: Leu14*Ala15 Tang hydroxyethylene dipeptide isostere, trifluoroacetate salt

The binders below were run against BACE1 enzyme (UniProt P56817 46-501, limits assumed) (assay: cell-based or functional assay).
BACE1 enzyme, sequence (P56817 46-501 limits assumed): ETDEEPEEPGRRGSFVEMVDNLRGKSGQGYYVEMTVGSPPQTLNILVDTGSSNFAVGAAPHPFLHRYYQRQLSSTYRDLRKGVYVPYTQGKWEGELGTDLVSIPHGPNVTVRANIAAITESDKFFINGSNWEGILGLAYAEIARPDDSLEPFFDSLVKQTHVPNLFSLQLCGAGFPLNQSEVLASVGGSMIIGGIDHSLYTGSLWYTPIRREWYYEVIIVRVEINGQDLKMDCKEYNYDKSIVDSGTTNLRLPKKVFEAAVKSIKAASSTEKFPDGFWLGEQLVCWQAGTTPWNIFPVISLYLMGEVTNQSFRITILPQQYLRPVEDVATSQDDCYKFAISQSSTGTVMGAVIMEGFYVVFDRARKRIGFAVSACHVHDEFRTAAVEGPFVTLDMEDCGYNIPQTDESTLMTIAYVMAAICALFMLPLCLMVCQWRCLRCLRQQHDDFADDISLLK
In the case of B1, the “IC50, cellular Aβ-lowering assay (Aβ40 in supernatant of HEK293 cells expressing human APP695)” value (“IC50, cellular Aβ-lowering assay” for short) is reported as 0.27 nM. With B2 the “IC50, cellular Aβ-lowering assay” value was 0.075 nM. For B3, the “IC50, cellular Aβ-lowering assay” value was 1260 nM. For B4, the “IC50, cellular Aβ-lowering assay” value was 140 nM. B5 was tested, and the “IC50, cellular Aβ-lowering assay” value was 0.028 nM. With B6 the “IC50, cellular Aβ-lowering assay” value was 0.177 nM. In the case of B7, the “IC50, cellular Aβ-lowering assay” value is reported as 0.0235 nM. For B8, the “IC50, cellular Aβ-lowering assay” value was 0.0218 nM. In the case of B9, the “IC50, cellular Aβ-lowering assay” value is reported as 0.22 nM. For B10, the “IC50, cellular Aβ-lowering assay” value was 0.0263 nM. B11 was tested, and the “IC50, cellular Aβ-lowering assay” value was 0.0771 nM. In the case of B12, the “IC50, cellular Aβ-lowering assay” value is reported as 18 nM. B13 was tested, and the “IC50, cellular Aβ-lowering assay” value was 0.28 nM. For B14, the “IC50, cellular Aβ-lowering assay” value was 0.0135 nM. B15 was tested, and the “IC50, cellular Aβ-lowering assay” value was 0.043 nM. For B16, the “IC50, cellular Aβ-lowering assay” value was 0.0228 nM. B17 was tested, and the “IC50, cellular Aβ-lowering assay” value was 0.36 nM. With B18 the “IC50, cellular Aβ-lowering assay” value was 0.07 nM. With B19 the “IC50, cellular Aβ-lowering assay” value was 0.017 nM. For B20, the “IC50, cellular Aβ-lowering assay” value was 0.0295 nM. B21 was tested, and the “IC50, cellular Aβ-lowering assay” value was 0.25 nM. For B22, the “IC50, cellular Aβ-lowering assay” value was 0.0024 nM.
